Measurements taken from publication PMC5479810.

Experiments:
[1] = biological target: Tumor necrosis factor alpha (UniProt P01375)
[2] = biological target: Tumor necrosis factor alpha (UniProt P01375); remark: listed apart in the source

Sequence of UniProt P01375 (P01375 whole entry): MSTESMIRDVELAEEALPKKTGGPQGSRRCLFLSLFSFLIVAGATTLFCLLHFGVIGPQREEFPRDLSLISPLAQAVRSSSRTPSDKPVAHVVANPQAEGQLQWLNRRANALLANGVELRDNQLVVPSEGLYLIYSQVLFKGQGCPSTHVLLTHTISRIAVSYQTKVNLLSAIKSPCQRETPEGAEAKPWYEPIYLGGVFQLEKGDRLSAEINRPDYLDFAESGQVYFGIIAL

Substance: Etanercept reference product Enbrel (Fc fusion)
- % Potency (redox: after serum-like redox conditions), NFκB-luciferase reporter gene assay; Enbrel (1034018), 1.8% C78-C88 [1]: 96%
- % Potency (redox: after serum-like redox conditions), NFκB-luciferase reporter gene assay; Enbrel (1034842), 1.8% C78-C88 [1]: 95%
- % Potency (redox: after serum-like redox conditions), NFκB-luciferase reporter gene assay; Enbrel (1040542), 1.7% C78-C88 [1]: 107%
- % Potency (redox: after serum-like redox conditions), NFκB-luciferase reporter gene assay; Enbrel (1062728), 1.8% C78-C88 [1]: 98%
- % Potency (redox: after serum-like redox conditions), NFκB-luciferase reporter gene assay; Enbrel (J13793), 1.6% C78-C88 [1]: 100%
- % Potency (untreated), relative to reference standard, NFκB-luciferase reporter gene assay; Enbrel (1034018), 2.8% C78-C88 [1]: 81%
- % Potency (untreated), relative to reference standard, NFκB-luciferase reporter gene assay; Enbrel (1034842), 2.5% C78-C88 [1]: 85%
- % Potency (untreated), relative to reference standard, NFκB-luciferase reporter gene assay; Enbrel (1040542), 2.6% C78-C88 [1]: 89%
- % Potency (untreated), relative to reference standard, NFκB-luciferase reporter gene assay; Enbrel (1062728), 2.5% C78-C88 [1]: 85%
- % Potency (untreated), relative to reference standard, NFκB-luciferase reporter gene assay; Enbrel (J13793), 2.3% C78-C88 [1]: 92%

Substance: Etanercept biosimilar GP2015 (Erelzi) (Fc fusion)
- % Potency (redox: after serum-like redox conditions), NFκB-luciferase reporter gene assay; GP2015 DP (30986553), 1.5% C78-C88 [1]: 103%
- % Potency (redox: after serum-like redox conditions), NFκB-luciferase reporter gene assay; GP2015 DP (30986557), 1.3% C78-C88 [1]: 101%
- % Potency (redox: after serum-like redox conditions), NFκB-luciferase reporter gene assay; GP2015 DP (31161503), 1.7% C78-C88 [1]: 98%
- % Potency (redox: after serum-like redox conditions), NFκB-luciferase reporter gene assay; GP2015 DS (B280815), 1.2% C78-C88 [1]: 103%
- % Potency (redox: after serum-like redox conditions), NFκB-luciferase reporter gene assay; GP2015 process intermediate (CAP.E), 1.6% C78-C88 [1]: 98%
- % Potency (untreated), relative to reference standard, NFκB-luciferase reporter gene assay; GP2015 DP (30986553), 1.2% C78-C88 [1]: 98%
- % Potency (untreated), relative to reference standard, NFκB-luciferase reporter gene assay; GP2015 DP (30986557), 1.8% C78-C88 [1]: 97%
- % Potency (untreated), relative to reference standard, NFκB-luciferase reporter gene assay; GP2015 DP (31161503), 1.2% C78-C88 [1]: 100%
- % Potency (untreated), relative to reference standard, NFκB-luciferase reporter gene assay; GP2015 DS (B280815), 1.0% C78-C88 [1]: 99%
- % Potency (untreated), relative to reference standard, NFκB-luciferase reporter gene assay; GP2015 process intermediate (CAP.E), 3.4% C78-C88 [1]: 76%
- potency (TNFα inhibition NFκB-luciferase reporter gene assay in HEK293 cells); main peak of large scale HIC separation of GP2015 [2]: 100%

Substance: GP2015 late eluting HIC fraction (etanercept enriched in incorrectly disulfide-bridged variants) (Fc fusion)
- % Potency (redox: after serum-like redox conditions that reshuffle the incorrect bridges), NFκB-luciferase reporter gene assay; GP2015 late eluting HIC fraction, 2.0% C78-C88 [1]: 93%
- % Potency (untreated), relative to reference standard, NFκB-luciferase reporter gene assay; GP2015 late eluting HIC fraction, 5.5% C78-C88 [1]: 58%
